# Reference: IntAct's records for PubMed 29892012
# B1: E3 ubiquitin-protein ligase LNX (Homo sapiens), Q8TBB1 (parent)
# chain: MNQPESANDPEPLCAVCGQAHSLEENHFYSYPEEVDDDLICHICLQALLDPLDTPCGHTYCTLCLTNFLVEKDFCPMDRKPLVLQHCKKSSILVNKLLNKLLVTCPFREHCTQVLQRCDLEHHFQTSCKGASHYGLTKDRKRRSQDGCPDGCASLTATAPSPEVSAAATISLMTDEPGLDNPAYVSSAEDGQPAISPVDSGRSNRTRARPFERSTIRSRSFKKINRALSVLRRTKSGSAVANHADQGRENSENTTAPEVFPRLYHLIPDGEITSIKINRVDPSESLSIRLVGGSETPLVHIIIQHIYRDGVIARDGRLLPGDIILKVNGMDISNVPHNYAVRLLRQPCQVLWLTVMREQKFRSRNNGQAPDAYRPRDDSFHVILNKSSPEEQLGIKLVRKVDEPGVFIFNVLDGGVAYRHGQLEENDRVLAINGHDLRYGSPESAAHLIQASERRVHLVVSRQVRQRSPDIFQEAGWNSNGSWSPGPGERSNTPKPLHPTITCHEKVVNIQKDPGESLGMTVAGGASHREWDLPIYVISVEPGGVISRDGRIKTGDILLNVDGVELTEVSRSEAVALLKRTSSSIVLKALEVKEYEPQEDCSSPAALDSNHNMAPPSDWSPSWVMWLELPRCLYNCKDIVLRRNTAGSLGFCIVGGYEEYNGNKPFFIKSIVEGTPAYNDGRIRCGDILLAVNGRSTSGMIHACLARLLKELKGRITLTIVSWPGTFL
# B2: E3 ubiquitin-protein ligase LNX (Homo sapiens), Q8TBB1 (parent)
# chain: B1 chain
# partner: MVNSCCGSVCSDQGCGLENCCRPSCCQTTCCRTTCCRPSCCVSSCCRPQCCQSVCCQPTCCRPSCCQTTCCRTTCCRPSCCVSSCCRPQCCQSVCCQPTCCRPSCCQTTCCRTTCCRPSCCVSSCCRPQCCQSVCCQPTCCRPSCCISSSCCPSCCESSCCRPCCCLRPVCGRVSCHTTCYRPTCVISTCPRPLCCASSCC
# B3: Coiled-coil domain-containing protein 14 (Homo sapiens), Q49A88 (parent)
# chain: MKRGIRRDPFRKRKLGGRAKKVREPTAVNSFYREASLPSVWASLRRREMVRSGARPGQVLSSGRHTGPAKLTNGKKATYLRKIPRFNADSGYSIHSDSESQAETVHGLDGCASLLRDILRNEDSGSETAYLENRSNSRPLESKRYGSKKKRHEKHTIPLVVQKETSSSDNKKQIPNEASARSERDTSDLEQNWSLQDHYRMYSPIIYQALCEHVQTQMSLMNDLTSKNIPNGIPAVPCHAPSHSESQATPHSSYGLCTSTPVWSLQRPPCPPKVHSEVQTDGNSQFASQGKTVSATCTDVLRNSFNTSPGVPCSLPKTDISAIPTLQQLGLVNGILPQQGIHKETDLLKCIQTYLSLFRSHGKETHLDSQTHRSPTQSQPAFLATNEEKCAREQIREATSERKDLNIHVRDTKTVKDVQKAKNVNKTAEKVRIIKYLLGELKALVAEQEDSEIQRLITEMEACISVLPTVSGNTDIQVEIALAMQPLRSENAQLRRQLRILNQQLREQQKTQKPSGAVDCNLELFSLQSLNMSLQNQLEESLKSQELLQSKNEELLKVIENQKDENKKFSSIFKDKDQTILENKQQYDIEITRIKIELEEALVNVKSSQFKLETAEKENQILGITLRQRDAEVTRLRELTRTLQTSMAKLLSDLSVDSARCKPGNNLTKSLLNIHDKQLQHDPAPAHTSIMSYLNKLETNYSFTHSEPLSTIKNEETIEPDKTYENVLSSRGPQNSNTRGMEEASAPGIISALSKQDSDEGSETMALIEDEHNLDNTIYIPFARSTPEKKSPLSKRLSPQPQIRAATTQLVSNSGLAVSGKENKLCTPVICSSSTKEAEDAPEKLSRASDMKDTQLLKKIKEAIGKIPAATKEPEEQTACHGPSGCLSNSLQVKGNTVCDGSVFTSDLMSDWSISSFSTFTSRDEQDFRNGLAALDANIARLQKSLRTGLLEK
# partner: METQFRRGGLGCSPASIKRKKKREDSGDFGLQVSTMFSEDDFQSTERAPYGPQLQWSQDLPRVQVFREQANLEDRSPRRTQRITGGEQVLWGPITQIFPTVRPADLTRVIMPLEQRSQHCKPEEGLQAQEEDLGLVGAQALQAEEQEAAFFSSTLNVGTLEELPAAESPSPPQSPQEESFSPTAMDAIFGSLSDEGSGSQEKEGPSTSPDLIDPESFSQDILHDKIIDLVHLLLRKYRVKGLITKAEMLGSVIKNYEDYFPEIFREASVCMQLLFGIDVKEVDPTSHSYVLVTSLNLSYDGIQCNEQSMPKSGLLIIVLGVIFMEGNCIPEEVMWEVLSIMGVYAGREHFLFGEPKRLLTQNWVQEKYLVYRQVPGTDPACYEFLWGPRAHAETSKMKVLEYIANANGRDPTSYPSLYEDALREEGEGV
# B4: E3 ubiquitin-protein ligase LNX (Homo sapiens), Q8TBB1 (parent)
# chain: B1 chain
# partner: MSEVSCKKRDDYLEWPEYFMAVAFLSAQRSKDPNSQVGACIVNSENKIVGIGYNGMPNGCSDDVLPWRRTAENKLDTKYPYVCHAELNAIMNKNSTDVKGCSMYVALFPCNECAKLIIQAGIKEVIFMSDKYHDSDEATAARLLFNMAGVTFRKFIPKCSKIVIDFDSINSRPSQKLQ
# B5: E3 ubiquitin-protein ligase LNX (Homo sapiens), Q8TBB1 (parent)
# chain: B1 chain
# partner: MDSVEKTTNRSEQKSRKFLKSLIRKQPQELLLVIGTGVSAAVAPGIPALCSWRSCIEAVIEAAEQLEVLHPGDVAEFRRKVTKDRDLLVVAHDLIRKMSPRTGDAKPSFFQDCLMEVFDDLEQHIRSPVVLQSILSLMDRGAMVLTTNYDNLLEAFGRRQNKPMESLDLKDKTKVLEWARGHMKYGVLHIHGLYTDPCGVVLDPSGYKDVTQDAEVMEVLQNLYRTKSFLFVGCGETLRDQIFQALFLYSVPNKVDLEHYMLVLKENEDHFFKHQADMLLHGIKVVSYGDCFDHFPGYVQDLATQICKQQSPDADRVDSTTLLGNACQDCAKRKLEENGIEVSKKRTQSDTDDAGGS
# Variants of: B1
# Conditions: with srsf1_human SRSF1, Q07955
# srsf1_human SRSF1, Q07955, sequence (Q07955 whole entry): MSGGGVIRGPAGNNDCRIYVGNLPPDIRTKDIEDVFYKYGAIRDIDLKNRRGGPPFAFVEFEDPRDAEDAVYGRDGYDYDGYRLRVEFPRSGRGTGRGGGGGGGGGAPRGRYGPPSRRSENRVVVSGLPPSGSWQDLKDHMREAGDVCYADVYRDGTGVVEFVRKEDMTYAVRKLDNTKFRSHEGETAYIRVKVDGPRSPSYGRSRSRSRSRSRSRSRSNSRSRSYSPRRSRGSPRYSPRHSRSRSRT
row,Variant,effect of a mutation on the interaction
1,E295K,disrupting interaction strength

# Variants of: B1
# Conditions: with pmgt1_human POMGNT1, Q8WZA1
# pmgt1_human POMGNT1, Q8WZA1, sequence (Q8WZA1 whole entry): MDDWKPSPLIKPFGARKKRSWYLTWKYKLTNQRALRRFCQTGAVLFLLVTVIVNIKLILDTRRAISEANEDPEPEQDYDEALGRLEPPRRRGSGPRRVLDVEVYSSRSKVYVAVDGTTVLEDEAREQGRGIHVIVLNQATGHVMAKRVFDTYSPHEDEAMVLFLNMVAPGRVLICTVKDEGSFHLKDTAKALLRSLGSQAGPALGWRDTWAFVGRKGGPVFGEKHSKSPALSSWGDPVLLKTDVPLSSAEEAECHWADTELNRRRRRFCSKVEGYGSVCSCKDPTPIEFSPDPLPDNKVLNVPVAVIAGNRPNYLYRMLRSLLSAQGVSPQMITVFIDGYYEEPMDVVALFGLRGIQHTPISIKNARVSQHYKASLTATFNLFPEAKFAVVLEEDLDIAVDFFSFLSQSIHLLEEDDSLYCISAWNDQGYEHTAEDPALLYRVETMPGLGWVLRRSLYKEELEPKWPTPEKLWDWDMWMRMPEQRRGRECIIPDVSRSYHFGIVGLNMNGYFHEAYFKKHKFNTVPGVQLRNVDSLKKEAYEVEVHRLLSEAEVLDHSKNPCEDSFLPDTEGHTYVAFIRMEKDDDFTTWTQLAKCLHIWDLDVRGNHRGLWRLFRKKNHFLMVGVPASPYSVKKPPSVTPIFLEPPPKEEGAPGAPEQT
row,Variant,effect of a mutation on the interaction
1,E295K,disrupting interaction strength

# Variants of: B1
# Conditions: with nagk_human NAGK
row,Variant,effect of a mutation on the interaction
1,E295K,disrupting interaction strength

# Variants of: B1
# Conditions: with cep72_human CEP72, Q9P209
# cep72_human CEP72, Q9P209, sequence (Q9P209 whole entry): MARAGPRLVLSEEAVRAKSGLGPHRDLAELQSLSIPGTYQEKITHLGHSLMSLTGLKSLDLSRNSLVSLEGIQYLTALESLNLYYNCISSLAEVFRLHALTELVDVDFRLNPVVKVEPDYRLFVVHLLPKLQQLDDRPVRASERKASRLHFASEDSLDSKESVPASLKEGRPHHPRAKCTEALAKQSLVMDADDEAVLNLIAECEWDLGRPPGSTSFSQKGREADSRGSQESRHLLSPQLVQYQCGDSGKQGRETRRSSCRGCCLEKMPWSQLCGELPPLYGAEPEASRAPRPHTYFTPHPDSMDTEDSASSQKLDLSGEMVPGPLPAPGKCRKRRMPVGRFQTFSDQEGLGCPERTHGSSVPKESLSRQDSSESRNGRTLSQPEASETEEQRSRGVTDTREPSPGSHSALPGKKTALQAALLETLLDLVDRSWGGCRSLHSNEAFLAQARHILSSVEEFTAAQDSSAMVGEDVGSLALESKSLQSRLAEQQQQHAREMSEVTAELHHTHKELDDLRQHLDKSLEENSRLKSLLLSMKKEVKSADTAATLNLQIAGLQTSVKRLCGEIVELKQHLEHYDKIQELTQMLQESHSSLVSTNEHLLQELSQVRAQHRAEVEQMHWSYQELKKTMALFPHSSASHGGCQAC
row,Variant,effect of a mutation on the interaction
1,E295K,disrupting interaction strength

# Variants of: B1
# Conditions: with mk09_human MAPK9, P45984
row,Variant,effect of a mutation on the interaction
1,E295K,with no effect

# Variants of: B1
# Conditions: with grb2_human GRB2, P62993
# grb2_human GRB2, P62993, sequence (P62993 whole entry, looked up): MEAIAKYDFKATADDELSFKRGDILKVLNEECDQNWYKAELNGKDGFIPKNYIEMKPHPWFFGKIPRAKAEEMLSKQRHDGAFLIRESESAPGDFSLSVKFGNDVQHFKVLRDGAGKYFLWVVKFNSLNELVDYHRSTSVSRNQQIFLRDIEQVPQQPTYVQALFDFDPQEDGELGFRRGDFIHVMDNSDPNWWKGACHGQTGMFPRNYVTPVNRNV
row,Variant,effect of a mutation on the interaction
1,E295K,disrupting interaction strength

# Variants of: B1
# Conditions: with ldoc1_human LDOC1, O95751
# ldoc1_human LDOC1, O95751, sequence (O95751 whole entry): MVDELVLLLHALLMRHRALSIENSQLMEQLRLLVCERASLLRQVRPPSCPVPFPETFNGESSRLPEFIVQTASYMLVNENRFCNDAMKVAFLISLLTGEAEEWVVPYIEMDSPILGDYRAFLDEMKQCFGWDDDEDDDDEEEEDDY
row,Variant,effect of a mutation on the interaction
1,E295K,disrupting interaction strength

# Variants of: B1
# Conditions: with kcd17_human KCTD17, Q8N5Z5
row,Variant,effect of a mutation on the interaction
1,E295K,disrupting interaction strength

# Variants of: B1
# Conditions: with rpia_human RPIA
row,Variant,effect of a mutation on the interaction
1,E295K,disrupting interaction strength

# Variants of: B1
# Conditions: with tera_human VCP
row,Variant,effect of a mutation on the interaction
1,E295K,disrupting interaction strength

# Variants of: B1
# Conditions: with KRT15, P19012
# KRT15, P19012, sequence (P19012 whole entry): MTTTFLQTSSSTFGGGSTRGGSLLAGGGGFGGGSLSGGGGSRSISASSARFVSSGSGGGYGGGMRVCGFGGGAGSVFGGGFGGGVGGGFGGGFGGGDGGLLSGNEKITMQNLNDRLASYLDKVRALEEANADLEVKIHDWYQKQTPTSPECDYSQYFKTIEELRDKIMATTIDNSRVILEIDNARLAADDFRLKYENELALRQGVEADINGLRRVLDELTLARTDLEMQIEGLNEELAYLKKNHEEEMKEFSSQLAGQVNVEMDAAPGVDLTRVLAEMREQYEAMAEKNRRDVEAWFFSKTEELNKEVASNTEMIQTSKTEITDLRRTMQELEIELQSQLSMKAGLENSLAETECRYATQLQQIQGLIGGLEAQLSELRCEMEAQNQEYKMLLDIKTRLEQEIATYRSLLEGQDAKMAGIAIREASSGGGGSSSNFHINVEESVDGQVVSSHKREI
row,Variant,effect of a mutation on the interaction
1,E295K,disrupting interaction strength

# Variants of: B1
# Conditions: with rop1a_human ROPN1, Q9HAT0
# rop1a_human ROPN1, Q9HAT0, sequence (Q9HAT0 whole entry): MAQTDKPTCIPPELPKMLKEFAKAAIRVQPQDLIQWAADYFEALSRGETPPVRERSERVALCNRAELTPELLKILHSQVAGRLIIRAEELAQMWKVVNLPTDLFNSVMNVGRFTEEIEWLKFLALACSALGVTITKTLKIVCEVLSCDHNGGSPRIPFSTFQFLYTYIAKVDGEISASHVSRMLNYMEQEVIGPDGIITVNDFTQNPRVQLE
row,Variant,effect of a mutation on the interaction
1,E295K,disrupting interaction strength

# Variants of: B1
# Conditions: with nt2na_human NOTCH2NLA
row,Variant,effect of a mutation on the interaction
1,E295K,disrupting interaction strength

# Variants of: B1
# Conditions: with mt21a_human METTL21A
row,Variant,effect of a mutation on the interaction
1,E295K,disrupting interaction strength

# Variants of: B1
# Conditions: with zbt8a_human ZBTB8A
row,Variant,effect of a mutation on the interaction
1,E295K,disrupting interaction strength

# Variants of: B1
# Conditions: with dnpep_human DNPEP
row,Variant,effect of a mutation on the interaction
1,E295K,disrupting interaction strength

# Variants of: B1
# Conditions: with clk2_human CLK2, P49760
# clk2_human CLK2, P49760, sequence (P49760 whole entry, looked up): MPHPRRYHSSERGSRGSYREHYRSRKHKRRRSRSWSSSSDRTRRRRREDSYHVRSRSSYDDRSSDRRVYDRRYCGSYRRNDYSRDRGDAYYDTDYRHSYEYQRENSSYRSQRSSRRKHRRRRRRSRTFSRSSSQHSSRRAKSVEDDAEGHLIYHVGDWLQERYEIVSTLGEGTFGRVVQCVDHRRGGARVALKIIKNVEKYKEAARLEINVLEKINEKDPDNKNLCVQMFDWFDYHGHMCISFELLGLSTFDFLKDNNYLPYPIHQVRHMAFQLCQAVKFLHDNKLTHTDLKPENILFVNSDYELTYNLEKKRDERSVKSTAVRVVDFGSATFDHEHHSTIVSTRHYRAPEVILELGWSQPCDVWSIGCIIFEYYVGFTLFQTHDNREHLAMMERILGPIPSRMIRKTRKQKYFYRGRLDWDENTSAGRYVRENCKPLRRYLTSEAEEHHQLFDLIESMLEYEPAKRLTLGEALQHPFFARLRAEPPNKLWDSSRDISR
row,Variant,effect of a mutation on the interaction
1,E295K,disrupting interaction strength

# Variants of: B1
# Conditions: with sat1_human SAT1, P21673
# sat1_human SAT1, P21673, sequence (P21673 whole entry): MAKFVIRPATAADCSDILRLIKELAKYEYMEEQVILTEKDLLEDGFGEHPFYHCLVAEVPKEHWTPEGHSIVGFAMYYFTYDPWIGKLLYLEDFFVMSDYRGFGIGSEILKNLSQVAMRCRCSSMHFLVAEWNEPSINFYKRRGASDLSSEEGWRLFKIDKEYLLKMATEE
row,Variant,effect of a mutation on the interaction
1,E295K,disrupting interaction strength

# Variants of: B1
# Conditions: with neca2_human NECAB2, Q7Z6G3
# neca2_human NECAB2, Q7Z6G3, sequence (Q7Z6G3 whole entry): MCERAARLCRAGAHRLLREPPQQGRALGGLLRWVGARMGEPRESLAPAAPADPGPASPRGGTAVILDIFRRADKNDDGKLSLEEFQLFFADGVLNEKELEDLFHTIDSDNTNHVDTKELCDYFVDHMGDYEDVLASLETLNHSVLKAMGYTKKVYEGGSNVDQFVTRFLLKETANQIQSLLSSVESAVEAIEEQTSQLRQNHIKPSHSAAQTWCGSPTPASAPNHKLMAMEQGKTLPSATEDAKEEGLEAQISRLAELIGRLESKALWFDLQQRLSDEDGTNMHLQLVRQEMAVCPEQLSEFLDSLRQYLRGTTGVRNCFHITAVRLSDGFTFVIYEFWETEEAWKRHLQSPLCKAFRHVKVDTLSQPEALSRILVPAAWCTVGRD
row,Variant,effect of a mutation on the interaction
1,E295K,disrupting interaction strength

# Variants of: B1
# Conditions: with tri23_human TRIM23, P36406
# tri23_human TRIM23, P36406, sequence (P36406 whole entry): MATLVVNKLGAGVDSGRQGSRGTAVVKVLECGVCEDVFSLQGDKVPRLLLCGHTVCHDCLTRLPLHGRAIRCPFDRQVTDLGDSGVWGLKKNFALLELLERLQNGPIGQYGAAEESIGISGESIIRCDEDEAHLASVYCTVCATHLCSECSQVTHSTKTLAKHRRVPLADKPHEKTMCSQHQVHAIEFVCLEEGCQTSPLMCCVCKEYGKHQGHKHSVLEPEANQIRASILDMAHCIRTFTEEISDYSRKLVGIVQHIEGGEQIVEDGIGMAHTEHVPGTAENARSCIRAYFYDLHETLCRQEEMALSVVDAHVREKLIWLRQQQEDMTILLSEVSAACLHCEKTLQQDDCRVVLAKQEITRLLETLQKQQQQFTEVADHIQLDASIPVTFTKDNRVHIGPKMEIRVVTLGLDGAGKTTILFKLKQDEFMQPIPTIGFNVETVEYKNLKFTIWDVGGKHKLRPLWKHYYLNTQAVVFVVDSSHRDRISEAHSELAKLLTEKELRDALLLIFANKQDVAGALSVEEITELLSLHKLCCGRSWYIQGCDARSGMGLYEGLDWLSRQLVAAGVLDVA
row,Variant,effect of a mutation on the interaction
1,E295K,disrupting interaction strength

# Variants of: B1
# Conditions: with mr1l1_human MRFAP1L1, Q96HT8
# mr1l1_human MRFAP1L1, Q96HT8, sequence (Q96HT8 whole entry): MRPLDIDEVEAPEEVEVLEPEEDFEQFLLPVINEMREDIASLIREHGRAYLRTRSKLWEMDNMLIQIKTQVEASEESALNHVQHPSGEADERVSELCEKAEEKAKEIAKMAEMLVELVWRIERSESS
row,Variant,effect of a mutation on the interaction
1,E295K,disrupting interaction strength

# Variants of: B1
# Conditions: with ndk7_human NME7, Q9Y5B8
# ndk7_human NME7, Q9Y5B8, sequence (Q9Y5B8 whole entry): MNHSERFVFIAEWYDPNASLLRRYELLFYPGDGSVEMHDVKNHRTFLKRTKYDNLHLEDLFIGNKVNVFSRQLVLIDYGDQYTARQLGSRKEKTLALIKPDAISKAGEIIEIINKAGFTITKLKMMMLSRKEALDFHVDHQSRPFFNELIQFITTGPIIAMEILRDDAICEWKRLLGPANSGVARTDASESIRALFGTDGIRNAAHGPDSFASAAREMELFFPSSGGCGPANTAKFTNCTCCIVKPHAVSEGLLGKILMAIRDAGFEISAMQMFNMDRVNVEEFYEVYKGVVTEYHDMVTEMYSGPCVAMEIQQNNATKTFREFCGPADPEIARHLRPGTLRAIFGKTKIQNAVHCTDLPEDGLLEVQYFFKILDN
row,Variant,effect of a mutation on the interaction
1,E295K,disrupting interaction strength

# Variants of: B2
# Conditions: with kr412_human KRTAP4-12, Q9BQ66
row,Variant,effect of a mutation on the interaction
1,E295K,disrupting interaction strength

# Variants of: B3
# Conditions: with magab_human MAGEA11, P43364
row,Variant,effect of a mutation on the interaction
1,I476T,with no effect

# Variants of: B4
# Conditions: with dctd_human DCTD
row,Variant,effect of a mutation on the interaction
1,E295K,disrupting interaction strength

# Variants of: B5
# Conditions: with FAM118A
row,Variant,effect of a mutation on the interaction
1,E295K,disrupting interaction strength
